Laboratory results from patent publication US8840891 (RSR, dated 2014).

Columns and labels:
Experiment in all cases: cell-based or functional assay
[1] = biological target: human TSHR Asp203Ala, expressed in CHO cells (human) (UniProt P16473)
[2] = biological target: wild type human TSHR (human) (UniProt P16473)
[3] = biological target: TSHR with Lys58 mutated to Alanine (human) (UniProt P16473)
[4] = biological target: human TSHR with Asp276 mutated to Alanine, expressed in CHO cells (human) (UniProt P16473)
[5] = biological target: human TSHR expressed on CHO cells (human) (UniProt P16473)
[6] = biological target: TSHR with Phe134 mutated to Alanine (human) (UniProt P16473)
[7] = biological target: human TSHR with activating mutation A623I, on CHO cells (human) (UniProt P16473)
[8] = biological target: human TSHR with activating mutation S281I, on CHO cells (human) (UniProt P16473)

In the case of 5C9 IgG (antibody), the % inhibition of TSH stimulated cyclic AMP level; pTSH 3 ng/mL + 1 µg/mL 5C9 [1] is reported as 4%, the cyclic AMP concentration; pTSH 3 ng/mL + 1 µg/mL 5C9 (mean of duplicate samples) (fmol/cell well) [1] is reported as 9400 and the cyclic AMP; 100 µg/mL 5C9 IgG only (fmol/cell well) [2] is reported as 253. For the same molecule, the cyclic AMP; 5C9 0.01 µg/mL + TSH (fmol/cell well) [2] was 7340, the cyclic AMP; 5C9 0.1 µg/mL + TSH (fmol/cell well) [2] was 4640 and the cyclic AMP; 5C9 1.0 µg/mL + TSH (fmol/cell well) [2] was 918. For the same molecule, the cyclic AMP; 5C9 10 µg/mL + TSH (fmol/cell well) [2] was 351, the cyclic AMP; 5C9 100 µg/mL + TSH (fmol/cell well) [2] was 528 and the cyclic AMP; 5C9 100 µg/mL only (fmol/cell well) [2] was 47. It also gave a cyclic AMP; T21 + 0.001 µg/mL 5C9 IgG (fmol/cell well) [2] of 11300, a cyclic AMP; T21 + 0.01 µg/mL 5C9 IgG (fmol/cell well) [2] of 10400 and a cyclic AMP; T21 + 0.1 µg/mL 5C9 IgG (fmol/cell well) [2] of 7480. For the same molecule, the cyclic AMP; T21 + 1 µg/mL 5C9 IgG (fmol/cell well) [2] was 418, the cyclic AMP; T21 + 10 µg/mL 5C9 IgG (fmol/cell well) [2] was 303 and the cyclic AMP; T21 + 100 µg/mL 5C9 IgG (fmol/cell well) [2] was 210. For the same molecule, the Mutated/wild type (%); 5C9 0.01 µg/mL + TSH [3] was 108%, the Mutated/wild type (%); 5C9 0.1 µg/mL + TSH [3] was 104% and the Mutated/wild type (%); 5C9 1.0 µg/mL + TSH [3] was 195%. It also gave a Mutated/wild type (%); 5C9 10 µg/mL + TSH [3] of 272%, a Mutated/wild type (%); 5C9 100 µg/mL + TSH [3] of 190% and a cyclic AMP; 5C9 0.01 µg/mL + TSH (fmol/cell well) [3] of 7910. It also gave a cyclic AMP; 5C9 0.1 µg/mL + TSH (fmol/cell well) [3] of 4820, a cyclic AMP; 5C9 1.0 µg/mL + TSH (fmol/cell well) [3] of 1790 and a cyclic AMP; 5C9 10 µg/mL + TSH (fmol/cell well) [3] of 955. For the same molecule, the cyclic AMP; 5C9 100 µg/mL + TSH (fmol/cell well) [3] was 1000, the cyclic AMP; 5C9 100 µg/mL only (fmol/cell well) [3] was less than 25 and the Cyclic AMP produced; 5C9 0.01 µg/mL + pTSH 3 ng/mL; Experiment 1 (fmol/cell well) [4] was 26200. For the same molecule, the Cyclic AMP produced; 5C9 0.01 µg/mL + pTSH 3 ng/mL; Experiment 2 (fmol/cell well) [4] was 21200, the Cyclic AMP produced; 5C9 0.1 µg/mL + pTSH 3 ng/mL; Experiment 1 (fmol/cell well) [4] was 16900 and the Cyclic AMP produced; 5C9 0.1 µg/mL + pTSH 3 ng/mL; Experiment 2 (fmol/cell well) [4] was 7320. The Cyclic AMP produced; 5C9 1.0 µg/mL + pTSH 3 ng/mL; Experiment 1 (fmol/cell well) [4] was 4790, the Cyclic AMP produced; 5C9 1.0 µg/mL + pTSH 3 ng/mL; Experiment 2 (fmol/cell well) [4] was 1510 and the Cyclic AMP produced; 5C9 10 µg/mL + pTSH 3 ng/mL; Experiment 1 (fmol/cell well) [4] was 1380. For the same molecule, the Cyclic AMP produced; 5C9 10 µg/mL + pTSH 3 ng/mL; Experiment 2 (fmol/cell well) [4] was 1300, the Cyclic AMP produced; 5C9 100 µg/mL + pTSH 3 ng/mL; Experiment 1 (fmol/cell well) [4] was 565 and the Cyclic AMP produced; 5C9 100 µg/mL + pTSH 3 ng/mL; Experiment 2 (fmol/cell well) [4] was 288. It also gave a Cyclic AMP produced; 5C9 100 µg/mL only (no TSH); Experiment 1 (fmol/cell well) [4] of 602, a Cyclic AMP produced; 5C9 100 µg/mL only (no TSH); Experiment 2 (fmol/cell well) [4] of 314 and a Mutated/wild type (%) of cyclic AMP; 5C9 0.01 µg/mL + pTSH 3 ng/mL; Experiment 1 [4] of 152%. The Mutated/wild type (%) of cyclic AMP; 5C9 0.01 µg/mL + pTSH 3 ng/mL; Experiment 2 [4] was 151%, the Mutated/wild type (%) of cyclic AMP; 5C9 0.1 µg/mL + pTSH 3 ng/mL; Experiment 1 [4] was 301% and the Mutated/wild type (%) of cyclic AMP; 5C9 0.1 µg/mL + pTSH 3 ng/mL; Experiment 2 [4] was 164%. For the same molecule, the Mutated/wild type (%) of cyclic AMP; 5C9 1.0 µg/mL + pTSH 3 ng/mL; Experiment 1 [4] was 631%, the Mutated/wild type (%) of cyclic AMP; 5C9 1.0 µg/mL + pTSH 3 ng/mL; Experiment 2 [4] was 230% and the Mutated/wild type (%) of cyclic AMP; 5C9 10 µg/mL + pTSH 3 ng/mL; Experiment 1 [4] was 378%. For the same molecule, the Mutated/wild type (%) of cyclic AMP; 5C9 10 µg/mL + pTSH 3 ng/mL; Experiment 2 [4] was 240%, the Mutated/wild type (%) of cyclic AMP; 5C9 100 µg/mL + pTSH 3 ng/mL; Experiment 1 [4] was 164% and the Mutated/wild type (%) of cyclic AMP; 5C9 100 µg/mL + pTSH 3 ng/mL; Experiment 2 [4] was 101%. The Mutated/wild type (%) of cyclic AMP; 5C9 100 µg/mL only (no TSH); Experiment 1 [4] was 201%, the Mutated/wild type (%) of cyclic AMP; 5C9 100 µg/mL only (no TSH); Experiment 2 [4] was 151% and the Cyclic AMP, serum T1 + 0.001 µg/mL 5C9 IgG (fmol/cell well) [5] was 16900. The Cyclic AMP, serum T1 + 0.01 µg/mL 5C9 IgG (fmol/cell well) [5] was 20300, the Cyclic AMP, serum T1 + 0.1 µg/mL 5C9 IgG (fmol/cell well) [5] was 16200 and the Cyclic AMP, serum T1 + 1 µg/mL 5C9 IgG (fmol/cell well) [5] was 2430. It also gave a Cyclic AMP, serum T1 + 10 µg/mL 5C9 IgG (fmol/cell well) [5] of 1120, a Cyclic AMP, serum T3 + 0.001 µg/mL 5C9 IgG (fmol/cell well) [5] of 11600 and a Cyclic AMP, serum T3 + 0.01 µg/mL 5C9 IgG (fmol/cell well) [5] of 13700. It also gave a Cyclic AMP, serum T3 + 0.1 µg/mL 5C9 IgG (fmol/cell well) [5] of 10400, a Cyclic AMP, serum T3 + 1 µg/mL 5C9 IgG (fmol/cell well) [5] of 8080 and a Cyclic AMP, serum T3 + 10 µg/mL 5C9 IgG (fmol/cell well) [5] of 7810. The Cyclic AMP, serum T6 + 0.001 µg/mL 5C9 IgG (fmol/cell well) [5] was 11800, the Cyclic AMP, serum T6 + 0.01 µg/mL 5C9 IgG (fmol/cell well) [5] was 13900 and the Cyclic AMP, serum T6 + 0.1 µg/mL 5C9 IgG (fmol/cell well) [5] was 9530. The Cyclic AMP, serum T6 + 1 µg/mL 5C9 IgG (fmol/cell well) [5] was 2370, the Cyclic AMP, serum T6 + 10 µg/mL 5C9 IgG (fmol/cell well) [5] was 1030 and the Cyclic AMP, serum T19 + 0.001 µg/mL 5C9 IgG (mean of duplicate) (fmol/cell well) [5] was 6470. For the same molecule, the Cyclic AMP, serum T19 + 0.01 µg/mL 5C9 IgG (fmol/cell well) [5] was 5750, the Cyclic AMP, serum T19 + 0.1 µg/mL 5C9 IgG (fmol/cell well) [5] was 375 and the Cyclic AMP, serum T19 + 1 µg/mL 5C9 IgG (fmol/cell well) [5] was 187. It also gave a Cyclic AMP, serum T19 + 10 µg/mL 5C9 IgG (fmol/cell well) [5] of 275, a Cyclic AMP, serum T20 + 0.001 µg/mL 5C9 IgG (mean of duplicate) (fmol/cell well) [5] of 4860 and a Cyclic AMP, serum T20 + 0.01 µg/mL 5C9 IgG (fmol/cell well) [5] of 6490. For the same molecule, the Cyclic AMP, serum T20 + 0.1 µg/mL 5C9 IgG (fmol/cell well) [5] was 2180, the Mutated/wild type (%); 5C9 0.01 µg/mL + TSH [6] was 117% and the Mutated/wild type (%); 5C9 0.1 µg/mL + TSH [6] was 73%. For the same molecule, the Mutated/wild type (%); 5C9 1.0 µg/mL + TSH [6] was 43%, the Mutated/wild type (%); 5C9 10 µg/mL + TSH [6] was 44% and the Mutated/wild type (%); 5C9 100 µg/mL + TSH [6] was 77%. It also gave a Mutated/wild type (%); 5C9 100 µg/mL only [6] of 159%, a cyclic AMP; 5C9 0.01 µg/mL + TSH (fmol/cell well) [6] of 15900 and a cyclic AMP; 5C9 0.1 µg/mL + TSH (fmol/cell well) [6] of 6370. For the same molecule, the cyclic AMP; 5C9 1.0 µg/mL + TSH (fmol/cell well) [6] was 1940, the cyclic AMP; 5C9 10 µg/mL + TSH (fmol/cell well) [6] was 1060 and the cyclic AMP; 5C9 100 µg/mL + TSH (fmol/cell well) [6] was 1070. For the same molecule, the cyclic AMP; 5C9 100 µg/mL only (fmol/cell well) [6] was 337.

B1: 5C9 IgG (human monoclonal autoantibody to the TSHR) (antibody, from another filing, V domains shown)
VH: EVQLVESGGGLIQPGGSLRLSCAASGFTVSSNYMSWVRQAPGKGLEWVSVTYSGGSTSYADSVKGRFTISRDNSKNTLYLQMNSLRAEDTAVYYCARGGRYCSSISCYARSGCDYWGQGTLVTVSS
VL: AIQMTQSPSSLSASVGDRVTITCRASQSISNYLNWYQQKPGKAPKLLIYAASSLQSGVPSRFSGSGSGTDFTLTISSLQPEDFATYYCQQSYSSPSTTFGQGTKLEIK
B1 showed a basal cyclic AMP (buffer only 36.89); 5C9 IgG 0.001 µg/mL [7] of 26.5 pmol/mL, a basal cyclic AMP (buffer only 36.89); 5C9 IgG 0.01 µg/mL [7] of 27 pmol/mL and a basal cyclic AMP (buffer only 36.89); 5C9 IgG 0.1 µg/mL [7] of 19.8 pmol/mL. It also gave a basal cyclic AMP (buffer only 36.89); 5C9 IgG 1 µg/mL [7] of 16.4 pmol/mL and a % inhibition of basal cyclic AMP activity; 5C9 IgG 1 µg/mL [8] of 71%.
